Test results: PMC3461841 (Journal of molecular biology, 2012)

T1: MBP-ATPase/hel (Homo sapiens, UniProt Q9UPY3 1-604)
T1 sequence: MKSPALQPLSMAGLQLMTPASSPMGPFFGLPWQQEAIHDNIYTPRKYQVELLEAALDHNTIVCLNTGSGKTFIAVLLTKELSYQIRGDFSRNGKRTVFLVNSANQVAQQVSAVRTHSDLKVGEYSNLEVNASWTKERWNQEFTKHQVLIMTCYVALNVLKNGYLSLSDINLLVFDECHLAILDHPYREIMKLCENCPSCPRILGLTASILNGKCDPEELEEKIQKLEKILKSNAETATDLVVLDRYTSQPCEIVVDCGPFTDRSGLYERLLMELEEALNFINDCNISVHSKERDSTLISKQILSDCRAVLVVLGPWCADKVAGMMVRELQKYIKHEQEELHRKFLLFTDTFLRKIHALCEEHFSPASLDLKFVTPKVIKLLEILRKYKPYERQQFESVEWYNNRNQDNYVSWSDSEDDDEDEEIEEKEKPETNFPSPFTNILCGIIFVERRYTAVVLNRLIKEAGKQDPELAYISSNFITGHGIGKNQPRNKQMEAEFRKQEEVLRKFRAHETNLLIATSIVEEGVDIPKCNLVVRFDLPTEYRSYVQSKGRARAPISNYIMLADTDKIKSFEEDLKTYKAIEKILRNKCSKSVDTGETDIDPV

T2: DP (DUF283-PAZ) (Homo sapiens, UniProt Q9UPY3 605-1068)
T2 sequence: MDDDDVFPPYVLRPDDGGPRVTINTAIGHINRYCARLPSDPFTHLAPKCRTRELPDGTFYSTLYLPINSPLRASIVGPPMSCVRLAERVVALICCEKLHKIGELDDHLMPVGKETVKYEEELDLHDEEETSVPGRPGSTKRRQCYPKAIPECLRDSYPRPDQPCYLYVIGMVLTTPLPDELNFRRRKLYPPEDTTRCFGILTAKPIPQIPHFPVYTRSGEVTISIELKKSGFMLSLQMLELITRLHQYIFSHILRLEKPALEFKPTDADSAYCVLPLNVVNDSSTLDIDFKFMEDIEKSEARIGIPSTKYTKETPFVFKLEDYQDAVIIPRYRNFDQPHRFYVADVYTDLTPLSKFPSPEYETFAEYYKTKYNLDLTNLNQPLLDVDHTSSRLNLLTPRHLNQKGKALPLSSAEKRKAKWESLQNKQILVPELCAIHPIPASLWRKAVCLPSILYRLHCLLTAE

T3: hDcr-C (RNase IIIa, IIIb, dsRBD) (Homo sapiens, UniProt Q9UPY3 1235-1922)
T3 sequence: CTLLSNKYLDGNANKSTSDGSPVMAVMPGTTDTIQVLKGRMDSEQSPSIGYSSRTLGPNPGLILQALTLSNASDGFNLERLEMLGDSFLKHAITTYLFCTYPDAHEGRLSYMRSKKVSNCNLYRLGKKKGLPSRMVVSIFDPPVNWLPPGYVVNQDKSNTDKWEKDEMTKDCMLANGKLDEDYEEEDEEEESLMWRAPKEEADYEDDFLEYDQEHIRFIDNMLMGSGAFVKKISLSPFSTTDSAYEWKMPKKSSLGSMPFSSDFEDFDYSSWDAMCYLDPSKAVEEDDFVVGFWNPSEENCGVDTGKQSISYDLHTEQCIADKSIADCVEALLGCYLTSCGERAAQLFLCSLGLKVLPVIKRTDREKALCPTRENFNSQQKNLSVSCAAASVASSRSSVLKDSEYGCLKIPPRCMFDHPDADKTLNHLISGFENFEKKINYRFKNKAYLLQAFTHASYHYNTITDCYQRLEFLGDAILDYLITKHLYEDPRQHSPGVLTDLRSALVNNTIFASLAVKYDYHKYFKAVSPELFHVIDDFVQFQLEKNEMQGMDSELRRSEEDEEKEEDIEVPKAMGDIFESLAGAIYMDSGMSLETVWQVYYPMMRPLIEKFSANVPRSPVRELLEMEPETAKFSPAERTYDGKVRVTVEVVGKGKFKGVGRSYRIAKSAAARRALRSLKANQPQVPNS

T4: ATPase/helicase domain of human Dicer (1-604) fused with maltose-binding protein (human, UniProt Q9UPY3 1-604)
T4 sequence (looked up): T1 sequence

T5: MBP-ATPase/hel domain of human Dicer with a C-terminal hemagglutinin (HA) epitope tag (human, UniProt Q9UPY3 1-604)
T5 sequence (looked up): T1 sequence

T6: human Dicer C-terminal fragment (hDcr-C: 1235-1922), bacterially expressed (human, UniProt Q9UPY3 1235-1922)
T6 sequence (looked up): T3 sequence

B1: pre-hlet-7a-1 (structured_RNA)
RNA: UGAGGUAGUAGGUUGUAUAGUUUUAGGGUCACACCCACCACUGGGAGAUAACUAUACAAUCUACUGUCUUACC
B2: 37ab (dsRNA)
RNA 1: UGAGGUAGUAGGUUGUAUAGUUUGAAAGUUCACGAUU
RNA 2: UCGUGAACUUUCAAACUAUACAACCUACUACCUCAUU
B3: 21ab (siRNA/product mimic) (dsRNA)
RNA 1: UAUACAAUGUGCUAGCUUUCU
RNA 2: AAAGCUAGCACAUUGUAUAGU
B4: human TAR-RNA binding protein (hTRBP), the larger isoform TRBP2 (natural protein, UniProt Q15633-1 1-366, looked up)
chain: MSEEEQGSGTTTGCGLPSIEQMLAANPGKTPISLLQEYGTRIGKTPVYDLLKAEGQAHQPNFTFRVTVGDTSCTGQGPSKKAAKHKAAEVALKHLKGGSMLEPALEDSSSFSPLDSSLPEDIPVFTAAAAATPVPSVVLTRSPPMELQPPVSPQQSECNPVGALQELVVQKGWRLPEYTVTQESGPAHRKEFTMTCRVERFIEIGSGTSKKLAKRNAAAKMLLRVHTVPLDARDGNEVEPDDDHFSIGVGSRLDGLRNRGPGCTWDSLRNSVGEKILSLRSCSLGSLGALGPACCRVLSELSEEQAFHVSYLDIEELSLSGLCQCLVELSTQPATVCHGSATTREAARGEAARRALQYLKIMAGSK
B5: human Dicer DUF283-PAZ fragment (DP: 605-1068) (domain or fragment, UniProt Q9UPY3 605-1068, looked up)
chain: T2 sequence

What was measured:
[1] = target: FL-hDicer (full-length human Dicer) (Homo sapiens, UniProt Q9UPY3 1-1922); assay: filter binding
Sequence of FL-hDicer (full-length human Dicer) (Q9UPY3 whole entry): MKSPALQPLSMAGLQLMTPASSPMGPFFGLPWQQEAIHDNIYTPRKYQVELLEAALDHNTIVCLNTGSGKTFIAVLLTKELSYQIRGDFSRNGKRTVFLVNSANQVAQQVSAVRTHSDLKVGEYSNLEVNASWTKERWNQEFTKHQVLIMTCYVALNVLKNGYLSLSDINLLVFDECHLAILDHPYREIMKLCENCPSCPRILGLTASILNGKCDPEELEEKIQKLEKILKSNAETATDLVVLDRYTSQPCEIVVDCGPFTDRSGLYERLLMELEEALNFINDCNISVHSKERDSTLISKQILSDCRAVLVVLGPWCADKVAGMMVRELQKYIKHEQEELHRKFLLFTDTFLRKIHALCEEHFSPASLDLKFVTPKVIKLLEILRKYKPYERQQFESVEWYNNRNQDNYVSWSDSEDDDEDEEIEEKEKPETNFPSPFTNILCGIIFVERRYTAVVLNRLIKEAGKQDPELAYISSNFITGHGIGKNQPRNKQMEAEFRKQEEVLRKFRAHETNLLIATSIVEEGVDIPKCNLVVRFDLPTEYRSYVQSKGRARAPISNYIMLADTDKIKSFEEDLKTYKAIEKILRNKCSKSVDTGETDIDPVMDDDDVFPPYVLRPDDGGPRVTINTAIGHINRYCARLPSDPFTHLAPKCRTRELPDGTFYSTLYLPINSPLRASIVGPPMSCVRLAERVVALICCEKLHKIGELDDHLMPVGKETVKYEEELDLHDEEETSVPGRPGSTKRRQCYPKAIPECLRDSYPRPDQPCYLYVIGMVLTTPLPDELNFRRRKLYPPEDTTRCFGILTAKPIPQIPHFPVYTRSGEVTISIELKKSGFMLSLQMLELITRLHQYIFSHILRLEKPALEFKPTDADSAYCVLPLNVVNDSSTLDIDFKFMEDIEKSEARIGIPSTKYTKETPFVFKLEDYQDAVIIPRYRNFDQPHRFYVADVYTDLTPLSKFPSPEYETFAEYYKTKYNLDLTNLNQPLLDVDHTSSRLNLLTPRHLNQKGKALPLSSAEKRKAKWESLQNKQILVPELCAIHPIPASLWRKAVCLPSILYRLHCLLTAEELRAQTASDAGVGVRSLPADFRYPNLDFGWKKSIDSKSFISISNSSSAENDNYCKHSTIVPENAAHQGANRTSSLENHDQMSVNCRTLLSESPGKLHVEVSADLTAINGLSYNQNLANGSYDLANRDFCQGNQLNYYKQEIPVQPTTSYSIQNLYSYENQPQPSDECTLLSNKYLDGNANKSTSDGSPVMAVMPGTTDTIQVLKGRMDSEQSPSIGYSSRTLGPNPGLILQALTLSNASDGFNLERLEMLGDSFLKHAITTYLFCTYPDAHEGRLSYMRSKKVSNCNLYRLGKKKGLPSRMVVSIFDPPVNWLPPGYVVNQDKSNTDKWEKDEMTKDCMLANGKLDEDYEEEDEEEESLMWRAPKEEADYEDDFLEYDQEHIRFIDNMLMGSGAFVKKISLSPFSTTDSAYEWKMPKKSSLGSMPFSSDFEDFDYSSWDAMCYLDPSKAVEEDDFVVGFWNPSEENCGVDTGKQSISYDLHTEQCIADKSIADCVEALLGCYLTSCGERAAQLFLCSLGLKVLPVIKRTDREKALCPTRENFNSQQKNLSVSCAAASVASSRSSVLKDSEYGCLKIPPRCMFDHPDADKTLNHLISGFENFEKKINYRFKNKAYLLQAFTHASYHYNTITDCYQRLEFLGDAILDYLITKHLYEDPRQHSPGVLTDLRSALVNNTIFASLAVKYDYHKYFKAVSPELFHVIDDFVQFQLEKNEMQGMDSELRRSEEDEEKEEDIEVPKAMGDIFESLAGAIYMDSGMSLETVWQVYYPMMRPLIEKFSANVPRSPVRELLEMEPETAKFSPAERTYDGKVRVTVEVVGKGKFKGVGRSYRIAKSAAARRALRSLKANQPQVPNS

[2] = target: T1, MBP-ATPase/hel; assay: filter binding
[3] = target: T2, DP (DUF283-PAZ); assay: filter binding
[4] = target: T3, hDcr-C (RNase IIIa, IIIb, dsRBD); assay: filter binding
[5] = target: T4, ATPase/helicase domain of human Dicer …; assay: SEC
[6] = target: T5, MBP-ATPase/hel domain of human Dicer …; assay: co-IP
[7] = target: T6, human Dicer C-terminal fragment …; assay: SEC

| Binder | Kd [1] [nM] | Kd [2] [nM] | Kd [3] [nM] | further results |
| --- | --- | --- | --- | --- |
| B1 | 39 ± 5 | 96 ± 10 | ~1000 | – |
| B2 | 53 ± 8 | 476 ± 30 | 200 ± 34 | Kd [4]: 300 ± 40 nM |
| B3 | 144 ± 23 | – | 220 ± 40 | – |
| B4 | – | – | – | binding result [5]: binds; binding result [6]: binds |
| B5 | – | – | – | binding result [7]: binds |
